# PMC4441257, “A large genomic island allows Neisseria meningitidis to utilize propionic acid, with implications for colonization of the human nasopharynx” (Molecular Microbiology, 2014)
# System: CCC(=O)O
# Test: purified protein
# Excerpt: hydroxamate assay of propionate kinase activity on NMB0435 (AckA1)
substance,measurement,value
NMB0435 (AckA1) (Neisseria meningitidis MC58),Km,16.3 ± 2.2 mM
